Measured values reported in the RNAGym collection of RNA variant scans (doi:10.7554/elife.80360).

B1: HDV Ribozyme (parent)
chain: GGCCGGCAUGGUCCCAGCCUCCUCGCUGGCGCCGGCUGGGCAACAUUCCGAGGGGACCGUCCCCUCGGUAAUGGCGAAUGGGACCCA

Variants of: B1
Test: self-cleavage, relative activity (ratio to wild type); higher = more cleavage; co-transcriptional

Variant | self-cleavage
A16U G40U | 0.964
A16U G17U | 0.589
A16U G17C | 0.68
A16U G81C | 0.342
A16U G81U | 0.554
A16G C36G | 0
A16G C36U | 0.655
A16C U60G | 0.939
A16C G35C | 0.175
A16C G35A | 0.175
A16C G35U | 0.107
A16G C63U | 0.997
A16C U20C | 0.277
A16C U20A | 0
A16U G38C | 0
A16U G74C | 0.175
A16U G74A | 0.388
C15U U20A | 0.0692
C15U U20C | 0
C15U U20G | 0.166
A16U C33A | 0.0639
A16G U79C | 1.08
A16G U79A | 0.997
A16G U79G | 0.598

Variant | self-cleavage
A16G A43U | 0.623
A16U A43C | 0.32
A16U A43G | 0.453
A16U U72G | 0.465
A16U C32G | 0.156
A16G C62G | 0.369
A16G C62A | 0.877
A16C A83C | 0.227
A16C A83U | 0.633
A16C C18A | 0.0665
C15U U27G | 0.511
C15U U27A | 0.63
A16C C48G | 0.437
A16U C19U | 0.122
A16U C19G | 0
A16C G81A | 0.489
A16G C18A | 0.161
A16G C18U | 0.554
C15U U60C | 0.969
C15U U60A | 1.15
C15U U60G | 0.554
A16G G29C | 0
A16G C49G | 0.875
A16G C49U | 1.23

Variant | self-cleavage
A16C G29A | 0.116
A16C C32A | 0.0554
A16C G82C | 0.0755
A16U C36A | 0.0475
A16U C36G | 0.0519
A16U G31U | 0.225
A16U G31A | 0.409
A16U G29C | 0.104
A16U G29U | 0.113
A16U G29A | 0.0378
A16U C41U | 0.997
A16G U72A | 0.499
A16G U72G | 0.332
A16G U60G | 0.554
A16G U60A | 1.25
A16G G35U | 0.375
A16G G35C | 0.138
A16U C26G | 0.831
A16U C48G | 1.2
A16G G53C | 1.11
A16G G53U | 1.02
A16G C75G | 0.222
A16G C75U | 0.178
C15U U69A | 1.15

Variant | self-cleavage
A16C U47G | 0.185
A16C U47C | 0.95
A16U G35A | 0.342
A16U G35U | 0.208
A16U G59C | 0.997
A16U G59U | 0.966
A16G C24A | 0.569
A16G C24U | 0.808
A16G G76A | 1.07
A16U A87U | 0.862
A16G | 1.07
A16U | 0.984
A16C | 0.838
A16U G54U | 0.771
A16U G54A | 0.795
A16U G54C | 0.955
A16C A43U | 0.0831
A16C C85A | 0.875
A16C C85U | 0.795
A16C C85G | 0.95
A16U A78U | 0.332
A16C U27A | 0.684
A16C G67A | 0.506
A16G A71G | 0.748

Variant | self-cleavage
A16U C62U | 1.04
A16U C62G | 0.575
A16G G74U | 0.494
A16U U37G | 0
A16U U37C | 0.929
A16U U37A | 0.0554
A16U G53A | 1.01
A16G G39A | 0.404
A16U A51G | 1.04
A16G C22U | 0.853
A16U U79C | 0.705
A16C C58U | 1.05
A16G A45U | 0.712
A16G A45G | 0.772
A16G G34A | 0.17
A16G G34U | 0.324
A16G G34C | 0.0536
A16G G67C | 0.849
A16C G38U | 0.287
A16C G38A | 0.0504
A16U C85U | 1.03
A16C C24A | 0.277
A16C C24G | 0.0692
A16C C24U | 0.287

Variant | self-cleavage
A16U C64G | 0.782
A16U A56C | 0.906
A16U A56G | 0.831
A16G C85U | 0.969
A16G C85G | 0.965
A16C A77C | 0.266
A16C A77U | 0.199
A16G U47G | 1.14
A16U A42U | 0.465
A16C G50A | 0.525
A16U C66A | 0.831
A16U C66G | 1.26
A16C C61A | 0.332
A16C C61G | 0.7
A16U U27C | 0.587
A16U U27A | 0.697
A16G A70U | 0.499
A16C C19A | 0.277
A16C C19G | 0.0594
A16C A70U | 0.415
A16G A83U | 0.415
A16G G40A | 1.13
A16G G40U | 0.719
A16G C48A | 0.802

Variant | self-cleavage
A16G C48U | 1.42
A16G C48G | 0.914
A16C C57G | 0.646
A16C A71C | 0.492
A16U U60C | 0.831
A16U U60A | 0.587
C15U U37C | 0.923
C15U U37A | 0.196
A16G G28C | 0.115
A16G A42G | 0.504
A16G A42U | 0.396
A16C G76C | 0.731
A16C G76A | 1.08
A16C G76U | 0.88
A16C A56C | 0.639
A16C A56U | 0.997
A16C A56G | 0.776
C15U U23C | 1.11
C15U U23A | 0.831
C15U U23G | 0.415
A16C G59U | 0.808
A16G G68A | 0.928
A16G G68C | 1.06
A16G G68U | 1.01

Variant | self-cleavage
A16C G34C | 0.104
A16C G40A | 0.65
A16C G40U | 0.73
A16G G59C | 0.929
A16U C63G | 0.831
A16C G39A | 0.156
A16C G39C | 0.0831
A16C G39U | 0.244
A16C C30U | 0.449
A16C C63U | 0.895
A16G C64G | 0.807
A16G G80A | 0.243
A16G G80C | 0.249
A16G C61G | 0.962
A16U C57G | 1.22
A16G U37G | 0.119
A16G U37C | 0.997
A16G U37A | 0.115
A16G G38C | 0.142
A16G G38A | 0.213
A16U C49G | 0.91
A16U C49A | 0.895
A16U C49U | 0.918
A16G U23A | 1.11

Variant | self-cleavage
A16G U23C | 1.14
A16G U23G | 1.16
A16U U47A | 0.639
A16U C75U | 0.189
A16U C75A | 0.111
A16C C36G | 0
A16C C36U | 0.578
A16C C36A | 0.135
A16G C66A | 0.88
A16G C66G | 0.743
A16G U20G | 0.145
A16G U20A | 0.138
C15U U47A | 1.23
A16C G73C | 0.217
A16C G73A | 0.504
A16C G73U | 0.128
C15U U46A | 0.692
A16U C84U | 0.678
A16U C84G | 1.09
A16C G74A | 0.0692
A16C G74U | 0.415
A16C G74C | 0.185
A16U C58A | 1.09
A16U C58U | 0.962

Variant | self-cleavage
A16C U65A | 0.65
A16C U65G | 0.755
C15U U79G | 0.703
A16U C86A | 1.03
A16U G50C | 1.03
A16U G50U | 0.889
C15U U72C | 0.598
A16G G31U | 0.375
A16C C66A | 0.718
A16C C66U | 0.982
A16C G17U | 0.332
A16C G17C | 0.266
A16C U69A | 0.767
A16C U69C | 0.739
A16C U69G | 0.923
A16U G28C | 0
A16U G28U | 0.222
A16G G52C | 0.928
A16G G52U | 1.07
A16G A77U | 0.266
A16U G68C | 1.03
A16U G68A | 1.09
A16C A51C | 0.612
A16C A51G | 0.475

Variant | self-cleavage
A16U C61U | 1.04
A16U C61G | 0.712
A16U C21A | 0.185
A16U C21G | 0.0665
A16U A83C | 0.575
A16C A42G | 0.229
A16C G31U | 0
A16G U46G | 0.554
A16C C62A | 0.917
A16C C62U | 0.804
A16G G25C | 0.166
A16U G73U | 0.237
A16G C84G | 0.623
A16U G76U | 1.05
C15U U65C | 0.674
C15U U65G | 0.914
A16U G39C | 0.185
A16C U46G | 0.332
A16C U46A | 0.262
A16C U46C | 0.511
A16G C33G | 0.19
A16G C33A | 0.268
A16U C22A | 0.604
A16G C41G | 0.623

Variant | self-cleavage
A16C A45G | 1.05
A16C A45U | 0.332
A16C A45C | 0.35
A16G U65C | 1.26
A16G A78G | 0.465
A16G A78U | 0.0692
A16G A78C | 0.308
A16C C26G | 0.731
A16C U79G | 0.692
A16G G55C | 1.2
A16G G55U | 0.914
A16U A77C | 0.0692
A16C G68A | 0.649
A16C G55U | 0.425
A16C G55C | 1.01
A16C C64U | 1.02
A16C G28A | 0.0449
A16C G28C | 0.119
A16G C19U | 0.178
A16G C19A | 0.237
A16G C19G | 0.151
A16C G25A | 0.0405
A16C G25U | 0
A16U G52A | 0.7

Variant | self-cleavage
A16U G52U | 0.863
A16C G54C | 0.87
A16C G54U | 0.789
A16C G54A | 0.866
A16G G54U | 0.72
A16C C44A | 0.289
A16C C44U | 0.35
A16C C44G | 0.317
A16C C41A | 0.388
A16C C41G | 0.104
A16C C41U | 0.806
A16U A71U | 0.877
A16U A71G | 0.782
A16C A87C | 0.671
A16C A87U | 0.615
A16C U23A | 0.89
A16U G67C | 0.978
A16U C18U | 0.427
A16U C18G | 0.227
A16C G80A | 0.406
A16G C58G | 0.776
A16G C58A | 0.762
A16G U69A | 0.985
A16G U69G | 0.962

Variant | self-cleavage
A16C C33A | 0.208
A16C C33U | 0.688
A16C C33G | 0.227
A16U U20G | 0.0791
A16U G82A | 0.745
A16U G82U | 1.06
A16U G82C | 0.256
A16G A51U | 0.906
A16G A51G | 0.703
A16C C86U | 0.739
A16C C86G | 0.653
A16G U27G | 0.594
A16G U27C | 0.675
A16G G82U | 0.237
A16U A45G | 0.982
A16U G80A | 0.812
A16C U72G | 0.237
A16U C30A | 0.201
A16G G50C | 0.95
A16G G50U | 1.02
A16G A56C | 0.862
A16G A56U | 1.25
